The experiment concerns the target Porcine circovirus type 3 (PCV3) capsid protein (porcine circovirus type 3). Description: cryo-EM structure; in vitro assembled full-length PCV3-VLP, 1 mg/ml, Titan Krios 300 kV, EMAN2 reconstruction with icosahedral symmetry applied, ~8.5 Å.

Broadly, the stoichiometry N is a count of units in the complex or per binding partner. “Porcine circovirus type 3 (PCV3) capsid protein (natural protein)” returned a stoichiometry N of 60.
